Reference: patent publication US10703820B2, “Methods and compositions for reducing cardiac damage and other conditions” (Tufts Medical Center, Inc., priority 2013, dated 2020)
Marks after values point to notes of the source that are not given here.

Legend:
[1] = test system: endoglin; experiment: TGFβ1 stimulation of right ventricular fibroblasts (RVFB) pretreated with N-Eng Ab; assay type: cell-based, mouse and human; details: N-Eng Ab 10, 50, 100 μg/mL, TGFβ1 10 ng/mL
Procedure: (§1) 115:67-75, 2007 and Neuss et al., Cell Tissue Res. 286:145-153, 1996. For neutralizing antibody studies in vitro, mouse cardiac fibroblasts were pretreated with 10, 50, or 100 ug/mL of either a N-Eng Ab or control IgG Ab for 24 hours in fibroblast basal medium without supplementation prior to stimulation with TGFβ1 (10 ng/mL). After 24 hours, cells were harvested for analysis. […] 7:e5-920, 2012.

[2] = biological target: T1, endoglin (Homo sapiens, UniProt P17813); experiment: TGFβ1 stimulation of left ventricular fibroblasts (LVFB) pretreated with N-Eng Ab; assay type: cell-based, mouse and human; details: N-Eng Ab 10, 50, 100 μg/mL, TGFβ1 10 ng/mL
T1 construct: endogenous in cells; host or cells: primary right and left ventricular cardiac fibroblasts (mouse and/or human)
T1 sequence (P17813 26-658): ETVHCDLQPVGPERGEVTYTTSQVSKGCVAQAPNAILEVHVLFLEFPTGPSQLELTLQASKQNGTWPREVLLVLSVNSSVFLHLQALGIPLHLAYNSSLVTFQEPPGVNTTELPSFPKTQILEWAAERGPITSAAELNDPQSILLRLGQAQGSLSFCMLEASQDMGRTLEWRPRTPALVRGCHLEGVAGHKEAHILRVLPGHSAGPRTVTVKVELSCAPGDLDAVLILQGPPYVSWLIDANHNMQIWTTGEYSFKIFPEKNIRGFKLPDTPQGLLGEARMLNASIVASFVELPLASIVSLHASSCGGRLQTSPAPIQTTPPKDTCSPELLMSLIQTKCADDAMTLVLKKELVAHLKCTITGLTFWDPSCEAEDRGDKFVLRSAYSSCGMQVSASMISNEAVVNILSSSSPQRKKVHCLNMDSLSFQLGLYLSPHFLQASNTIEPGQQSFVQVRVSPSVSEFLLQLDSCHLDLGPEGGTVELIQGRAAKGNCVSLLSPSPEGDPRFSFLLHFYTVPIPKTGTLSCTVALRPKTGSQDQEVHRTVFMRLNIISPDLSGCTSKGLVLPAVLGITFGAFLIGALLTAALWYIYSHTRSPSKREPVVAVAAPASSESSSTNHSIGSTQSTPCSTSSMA
Procedure: as §1

[3] = biological target: T2, endoglin (Mus musculus, UniProt Q63961); experiment: Chronic moderate RVPO (PAC), antibody given from week 3 to week 6
T2 sequence (Q63961 27-653): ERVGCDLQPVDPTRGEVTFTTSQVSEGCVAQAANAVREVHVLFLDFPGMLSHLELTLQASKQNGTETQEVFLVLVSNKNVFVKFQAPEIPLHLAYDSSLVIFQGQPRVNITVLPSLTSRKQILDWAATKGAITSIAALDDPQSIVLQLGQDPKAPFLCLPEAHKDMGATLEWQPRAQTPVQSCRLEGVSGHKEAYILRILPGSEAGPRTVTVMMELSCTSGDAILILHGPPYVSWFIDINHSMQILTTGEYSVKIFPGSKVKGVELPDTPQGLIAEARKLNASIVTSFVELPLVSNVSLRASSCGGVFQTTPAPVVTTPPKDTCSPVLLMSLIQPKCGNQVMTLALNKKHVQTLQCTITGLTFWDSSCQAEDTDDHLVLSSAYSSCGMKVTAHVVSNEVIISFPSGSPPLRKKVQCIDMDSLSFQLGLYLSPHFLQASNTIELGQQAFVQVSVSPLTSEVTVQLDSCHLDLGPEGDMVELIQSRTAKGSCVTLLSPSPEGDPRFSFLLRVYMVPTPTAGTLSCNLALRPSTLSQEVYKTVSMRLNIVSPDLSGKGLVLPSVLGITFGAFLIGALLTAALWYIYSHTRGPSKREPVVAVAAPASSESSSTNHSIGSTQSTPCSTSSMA
Procedure: (§2) Specifically, mice were intubated using a 24G angiocath and mechanically ventilated (Harvard Apparatus) at 95 breaths per minute with a tidal volume of 0.3 mL with 2.0-2.5% Isoflurane and 100% flow-through oxygen. Depth of anesthesia was monitored by assessing palpebral reflex, toe pinch, respirations, and general response to touch. Using sterile technique, a left thoracotomy was performed to isolate and encircle the main pulmonary artery using a 7-0 nylon suture that is then tied tightly around a pre-sterilized, blunt end needle. After de-airing, the thorax is closed with layered 6-0 Dexon sutures to eliminate the risk of pneumothorax. Post-operative analgesia is immediately provided with subcutaneous buprenorphine 0.1 mL, which is continued twice daily and as needed for an additional 72 hours. Severe RVPO was induced by PAC with a 25G needle for 7 days in WT and Eng+/− mice. To investigate the role of endoglin in RVPO, WT mice received 15 mg/kg of either a neutralizing antibody to endoglin (N-Eng Ab; TRC105; Tracon Pharma) or an IgG1 control antibody (IgG Ab; R&D Systems) via single intraperitoneal injection 1 day prior to and 3 days after induction of severe RVPO. To study the effect of blocking endoglin activity after induction of RVPO, WT mice were randomized to receive biweekly IP injections for three weeks of 15 mg/kg N-Eng Ab or IgG control Ab beginning three weeks after induction of moderate RVPO using a 23G needle for PAC. […] After 7 days of severe PAC or 3 to 6 weeks of moderate RVPO, mice underwent hemodynamic analysis with a RV conductance catheter (Millar Inc) as previously described in Kapur et al., PLoS ONE. […] Briefly, mice were anesthetized with 2.0% isoflurane administered via a non-invasive nose-cone. Body temperature was monitored by a rectal thermistor probe and maintained at 37.5° C. with heating pads and a cycling heat lamp. In the supine position, the right external jugular vein was surgically isolated. A conductance catheter was advanced into the right ventricle for pressure-volume loop acquisition as described in Kapur et al., PLoS ONE. […] After completion of the hemodynamic study, with the animal still under isoflurane anesthesia, the chest was rapidly opened, and the mouse was euthanized by arresting the heart in diastole with 0.3 mL of 1N KCL injected directly into the left ventricle. The heart was then removed and processed for either biochemical or histologic analyses.
(§3) All animals underwent terminal hemodynamic evaluation. Right heart catheterization was performed at the time of sacrifice in all animals. Mice were anesthetized with 2.0% isoflurane administered by a noninvasive nose cone. Body temperature was monitored by a rectal thermistor probe and maintained at 37.5° C. with heating pads and a cycling heat lamp. In the supine position, the right common carotid and right external jugular vein were surgically isolated. Silk ties were placed at the distal ends of both vessels while overhand loops were placed at the proximal ends with 7-0 nylon. A Millar PVR-1035 (Millar Instruments) mouse conductance catheter was used for RV recordings.

[4] = biological target: T2, endoglin; experiment: Severe RVPO induced by PAC for 7 days in wild-type mice pre-treated with N-Eng Ab
Procedure: as §2, §3

[5] = 6 weeks moderate RVPO, antibody for the last 3 weeks
[6] = moderate PAC 6 weeks, N-Eng Ab 15 mg/kg IP biweekly for the last 3 weeks
[7] = Sham, wild-type mice + N-Eng Ab 15 mg/kg IP
[8] = after severe RVPO, compared to the IgG group
[9] = severe PAC 7 days, N-Eng Ab 15 mg/kg IP 1 day prior and 3 days after

## N-Eng Ab: neutralizing IgG1 antibody that binds human and mouse endoglin (TRC105), provided by Tracon Pharmaceuticals
[1]
  TGFβ1 induced calcineurin protein expression: inhibited
  TGFβ1 induced protein levels of pERK-1/2: inhibited
  TGFβ1 induced protein levels of pSmad-3: inhibited
  TGFβ1 induced α-SMA protein expression: inhibited
[1]; listed as TRC105
  TGFβ1 induced calcineurin protein expression: attenuated
[2]
  TGFβ1 induced calcineurin protein expression: not LVFB
  TGFβ1 induced protein levels of pERK-1/2: inhibited
  TGFβ1 induced protein levels of pSmad-3: inhibited
  TGFβ1 induced α-SMA protein expression: not LVFB
[2]; listed as TRC105
  TGFβ1 induced calcineurin protein expression: not LV fibroblasts
[3]; [5]
  Calcineurin protein expression: reduced
  RV fibrosis: significantly reduced
  Type I collagen protein expression: reduced
[3]; 6 weeks moderate RVPO, antibody for the last 3 weeks, listed as TRC105
  RV fibrosis: reduced RV fibrosis
[3]; [6]
  Cardiac output: 1.4 ± 0.6 mL/min
  Heart rate: 550 ± 52 beats per min
  LV weight/tibial length: 4.5 ± 0.2 g/mm
  RV +dp/dt: 4072 ± 875 mm Hg/sec
  RV end-diastolic pressure: 2 ± 1 mm Hg
  RV stroke volume: 3 ± 2 µL
  RV systolic pressure: 69 ± 14 mm Hg
  RV weight/tibial length: 2.5 ± 0.4 g/mm
  RV −dp/dt: 3916 ± 875 mm Hg/sec
  Total body weight: 27 ± 2 g
[3]; moderate RVPO, any time point
  Mortality: No mortality was observed
[4]; [7]
  Cardiac output: 4.0 ± 1 mL/min
  Heart rate: 512 ± 59 beats per min
  LV weight/tibial length: 6 ± 0.01
  RV +dp/dt: 2171 ± 283 mm Hg/sec
  RV end-diastolic pressure: 3 ± 2 mm Hg
  RV stroke volume: 8 ± 2 µL
  RV systolic pressure: 24 ± 3 mm Hg
  RV weight/tibial length: 1.5 ± 0.01 g/mm
  RV −dp/dt: 1963 ± 257 mm Hg/sec
  Total body weight: 28 ± 1 g
[4]; after 7 days of severe RVPO, compared to IgG treatment
  Survival: improved survival
[4]; after severe RVPO
  RV MYH7 mRNA levels: reduced
  RV TRPC-6 mRNA levels: reduced
  RV mass (degree of hypertrophy): attenuated
  RV α-SMA mRNA levels: reduced
[4]; [8]
  RV Type I collagen levels: reduced
  RV calcineurin levels: reduced
  RV fibrosis: significantly reduced
  RV pERK-1/2 levels: reduced
  RV pSmad-3 levels: reduced
[4]; [9]
  Cardiac output: 2.4 ± 0.2 mL/min
  Heart rate: 514 ± 52 beats per min
  LV weight/tibial length: 5 ± 0.02
  RV +dp/dt: 4130 ± 563 mm Hg/sec
  RV end-diastolic pressure: 4 ± 2 mm Hg
  RV stroke volume: 5 ± 1 µL
  RV systolic pressure: 53 ± 9 mm Hg
  RV weight/tibial length: 1.9 ± 0.01*^,† g/mm
  RV −dp/dt: 3287 ± 350 mm Hg/sec
  Total body weight: 24 ± 2 g
[4]; severe RVPO, compared to IgG controls (p=0.09)
  RV cardiomyocyte cross sectional area: trend towards lower cardiomyocyte hypertrophy
